Target: T1, TBSV Flag-p33 replication protein (tomato bushy stunt virus (TBSV), UniProt P15962 1-296)
T1 construct: TBSV p33 replication protein; co-expressed and co-purified with Flag-p92pol; source: yeast, expressed from a plasmid, in detergent-solubilized membrane fraction
T1 sequence: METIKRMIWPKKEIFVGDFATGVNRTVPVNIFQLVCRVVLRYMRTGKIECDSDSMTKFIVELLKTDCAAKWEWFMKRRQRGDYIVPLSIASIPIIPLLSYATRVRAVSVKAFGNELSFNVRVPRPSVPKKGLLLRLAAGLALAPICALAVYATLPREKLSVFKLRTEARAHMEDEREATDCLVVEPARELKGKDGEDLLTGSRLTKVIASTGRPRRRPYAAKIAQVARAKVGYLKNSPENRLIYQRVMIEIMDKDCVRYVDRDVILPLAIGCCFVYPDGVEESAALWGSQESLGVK
Assay: co-IP; Flag-affinity purification of Flag-tagged replication proteins (TBSV Flag-p33 + Flag-p92pol or CIRV Flag-p36 + Flag-p95pol) from the detergent-solubilized membrane fraction of yeast; samples cross-linked with formaldehyde; co-purified His6-tagged proteins detected with anti-His antibody; WT, fis1Δ, Fis1p- or Dnm1-ZZ-over-expressing yeast; cycloheximide time course
Conditions: partners not purified

B1: yeast His6-Fis1p (natural protein, S. cerevisiae, UniProt P40515 1-155, looked up)
chain: MTKVDFWPTLKDAYEPLYPQQLEILRQQVVSEGGPTATIQSRFNYAWGLIKSTDVNDERLGVKILTDIYKEAESRRRECLYYLTIGCYKLGEYSMAKRYVDTLFEHERNNKQVGALKSMVEDKIQKETLKGVVVAGGVLAGAVAVASFFLRNKRR
notes: Fis1p mitochondrial fission 1 protein, S. cerevisiae; also called HisScFis1; source: yeast, expressed from a plasmid, in detergent-solubilized membrane fraction
In the case of B1, the “fold reduction of co-purified Fis1p when Dnm1p is co-expressed, against yeast without Dnm1p over-expression” value is reported as about 8 fold.

B2: yeast His6-Osh6p (natural protein, S. cerevisiae, UniProt Q02201 1-448, looked up)
chain: MGSKKLTVGSDSHRLSKSSFSSNKSSHSATKDQPIDTDDIDEDDESGHNIILNIISQLRPGCDLTRITLPTFILEKKSMLERVTNQLQFPEFLLQAHSEKDPLKRFLYVMKWYLAGWHIAPKAVKKPLNPVLGEYFTAYWDLPNKQQAYYISEQTSHHPPECAYFYMIPESSIRVDGVVIPKSRFLGNSSAAMMDGSTVLQFLDIKDGNGKPEKYVLTQPNVYVRGILFGKMRIELGDHMIIKSPNFQADIEFKTKGYVFGTYDAIEGTVKDYDGNAYYEISGKWNDVMYLKDLKQPRSSPKVFLDTHKESPLRPKVRPLSEQGEYESRKLWKKVTDALAVRNHPVATEEKFQIEDHQRQLAKKRIEDGVEFHPKLFRRSKPGEDLDYCIYKNIPVDEDPEKQIRSILQIAPILPGQQFTDKFFIPAFEKIKSQKKMIENEKQNPAKQ
notes: source: yeast, expressed from a plasmid, in detergent-solubilized membrane fraction
B2 was tested, and the “fold of co-purified Osh6p, Fis1p-over-expressing against WT yeast” value was 3.5 fold more and the “fold of co-purified Osh6p, fis1Δ against WT yeast” value was about 4 fold less.

B3: yeast His6-Sac1p (enzyme, S. cerevisiae, UniProt P32368 1-623, looked up)
chain: MTGPIVYVQNADGIFFKLAEGKGTNDAVIHLANQDQGVRVLGAEEFPVQGEVVKIASLMGFIKLKLNRYAIIANTVEETGRFNGHVFYRVLQHSIVSTKFNSRIDSEEAEYIKLLELHLKNSTFYFSYTYDLTNSLQRNEKVGPAASWKTADERFFWNHYLTEDLRNFAHQDPRIDSFIQPVIYGYAKTVDAVLNATPIVLGLITRRSIFRAGTRYFRRGVDKDGNVGNFNETEQILLAENPESEKIHVFSFLQTRGSVPIYWAEINNLKYKPNLVLGENSLDATKKHFDQQKELYGDNYLVNLVNQKGHELPVKEGYESVVHALNDPKIHYVYFDFHHECRKMQWHRVKLLIDHLEKLGLSNEDFFHKVIDSNGNTVEIVNEQHSVVRTNCMDCLDRTNVVQSVLAQWVLQKEFESADVVATGSTWEDNAPLLTSYQNLWADNADAVSVAYSGTGALKTDFTRTGKRTRLGAFNDFLNSASRYYQNNWTDGPRQDSYDLFLGGFRPHTASIKSPFPDRRPVYIQLIPMIICAALTVLGATIFFPKDRFTSSKNLLYFAGASIVLALSTKFMFKNGIQFVNWPKLVDVGFLVVHQTHDKEQQFKGLKYAQSPKFSKPDPLKRD
notes: Sac1p PI4P phosphatase, S. cerevisiae; source: yeast, expressed from a plasmid, in detergent-solubilized membrane fraction
B3 was tested, and the “fold of co-purified Sac1p, Fis1p-over-expressing against WT yeast” value was over 2 fold.

Source: publication PMC7997005, “Dynamic interplay between the co-opted Fis1 mitochondrial fission protein and membrane contact site proteins in supporting tombusvirus replication” (PLoS Pathogens, 2021)
